Data as given in PMC4072508, “Genome-Wide Prediction and Validation of Peptides That Bind Human Prosurvival Bcl-2 Proteins” (PLoS Computational Biology, 2014).

Target: Bcl-xL, Q07817
Experiment: peptide SPOT array, c-Myc-tagged receptor at 1 uM or 100 nM, anti-c-Myc-Cy3

Bcl-xL, Q07817, sequence (Q07817 1-209): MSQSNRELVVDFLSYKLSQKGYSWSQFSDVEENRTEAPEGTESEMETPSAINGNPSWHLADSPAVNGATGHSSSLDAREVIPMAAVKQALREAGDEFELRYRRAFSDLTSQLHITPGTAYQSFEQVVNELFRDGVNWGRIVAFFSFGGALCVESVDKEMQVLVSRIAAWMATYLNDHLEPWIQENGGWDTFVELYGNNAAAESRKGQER

| Binder | SPOT signal as a fraction of Bim BH3's signal on the same receptor and array |
| --- | --- |
| PDGLLEFAKRLERWGRGAFGHLRLFQ [LRRC41] | 0.46 |
| NNDLSHIAGKLTYASQKYKNHIGTEI [HFM1] | 0.12 |
| VDKLKTLSETLLEMSSLFQRSGSGQM [ABCA13] | 0.03 |
| QNSRDPFCKAIEEVAQDLDLRIKNII [C12orf48] | 0.03 |
| DQEEACASRQDHSLASFSTVTARRNP | 0.04 |
| EQKVKQKAADLLEMATFLQKRVEEEE [C10orf79] | 0.02 |
| DQEEACASRQLHSLLSFSTVTARRNP | 0.1 |
| KEDLKGNIDKLRALADDIDKTHKKFT [APOL6] | 0.17 |
| TNISWRACDHDRCIACDFLVVSYDDY [C8orf37] | 0.03 |
| VFERCELARTDKRLGMDGYRGISLAN [LYZ] | 0.22 |
| ESEVQHLSQKLYDWSDSQNLKITGKA [ANKRD32] | 0.03 |
| LGRTGQVCLFLKRGLDQHALDQEQRD [ACAP3] | 0.29 |
| EVLAGPLAQRDSHIAEDVGRLVKKSR [ARHGAP4] | 0.04 |
| RGRTRGWVQTLARMLRRTRGPVERAA [C6orf223] | 0.66 |
| DVNIPDLIKQLDILGDNGNLRNEEQV [JAKMIP2] | 0.02 |
| SDDVQKIVEELQSLSKMLLKDVEEEK [IL31] | 0.03 |
| KFRHDEIISLLKNVGERVVLEVEYEL [GRIP1] | 0.03 |
| YKGHREIARYLLEQLAQVNRRSAKGN [FEM1A] | 0.81 |
| AGDVEGFCSSIHDTSVSAGFRALYEE [KLHL15] | 0.02 |
| LDDIEFFITKLQKAAEAFSELSKRKK [EPS8] | 0.13 |
| NKDGKSVSNRLRRLLDNCGGKVLSIT [KIAA0430] | 0.33 |
| GPGTLECAELLLRFGARVDGRSEEEE [ASB10] | 0.03 |

Results, then the binder that gave them:

| SPOT signal as a fraction of Bim BH3's signal on the same receptor and array | Binder |
| --- | --- |
| 0.38 | HPKRKQVTELDLRKGANVNEKNKDFM |
| 0.45 | RRFAKTIGKVDMQYADILSKDFPAYC [UNC13B] |
| 0.39 | RAELTGLARRLADRLRKLQETNLRAV [RIMBP3] |
| 0.03 | HERCQQPCKRLLICSHKCQEPCIGEC [ZNFX1] |
| 0.02 | SISLTPVAKGLENMGADFLESLEEGQ [SLC28A1] |
| 0.03 | GMTMIEICEKLEDCSRKLIKENGLNA [METAP2] |
| 1.49 | YGRLRPRARSDSKASTAINWLTKKFL [MYO15A] |
| 1.2 | ELLRLRQHWKDRKVGDKILGDLSYRS |
| 0.42 | MGVLAAAARCLVRGLDRMSKWTSKRG [MRPL41] |
| 0.7 | FTGNNTAVQELKRVLEQFTATFRRKA [TUBB4Q] |
| 0.11 | FLRINMVSMKLLAYAMDFWSKGQLKA [PANK1] |
| 0.03 | DFMGRTFAKPDVKMADEAYCPPRFPP [OTOF] |
| 0.08 | KDSVEGICSKIYHISLEYVKRIREKH [PCIF1] |
| 0.24 | LFRIRLVCTILDTCGQYFDRGSSKRK [UPF2] |
| 0.03 | TERIILFGRELQALSEQLGREYGKNL [RANBP10] |
| 0.42 | AIKPVSFIRDLKKILRHFRFGNQEDA |
| 0.35 | HRTSNVLTLSLKRFLNFSGGKITKDV |

| SPOT signal as a fraction of Bim BH3's signal on the same receptor and array | Binder |
| --- | --- |
| 0.47 | HRNTRNLAAFLGKALDLLRFPVKQLY [RP1L1] |
| 0.02 | TDENKKVGLADKDLAKQYSDRLECCE [NUB1] |
| 0.02 | TCELREFVKNIDQVSSEVLEGWPDSY [TLR6] |
| 0.28 | LKELDLSGNSLSHSLVKSLCKTLRRP [NLRP1] |
| 0.03 | LENYYRLADDLSNAARELRVLIDDSQ [MRS2] |
| 0.04 | HCQLRSVSQEIHRLSESMAQVYRGST [TDRD6] |
| 0.02 | VKAVDPTSGQLYGLARELSDEIQVQV [NUP210] |
| 0.46 | ELLRLRQHWKLRKVLDKILGDLSYRS |
| 0.02 | KANLEKVSRTLEDQANEYRVKLEEAQ [MYH6] |
| 0.08 | IQRMGKYALLLQELARACGGPTQELS [PLEKHG4] |
| 0.43 | HPKRKQVTELLLRKLANVNEKNKDFM |
| 0.05 | PEDLQDVGWFDHKLSQQILKKEKEKK [TLR5] |
| 0.03 | NGQFLGDALDLQKWAHEVWDIVDIKP [PPIL6] |
| 0.05 | PFNIQDYAEALKNYAASIYNLSKKHD [NAALAD2] |
| 0.55 | RERLRQSGERLRQSGERLRQSGERFK [MURC] |
| 0.05 | LDYHRQAVQILDELAEKLKRRMREAS [SH3GL1] |
